US8399201B2, “Polypeptide complex of TRPM8 and calmodulin and its uses thereof” (Janssen Pharmaceutica N.V., priority 2005, dated 2013)

Target: T1, calmodulin (Rattus norvegicus, UniProt P0DP29)
T1 construct: made in house; host or cells: Escherichia coli BL21 (pGEX-4T-1 based plasmid)
Assay: Pull-down of 35S-methionine-labelled TRPM8 fragments on GST-CaM agarose-GSH beads, SDS/PAGE and autoradiography
Type: binding
Design: key to Binding (binding activity to calmodulin): (+) binding was detected; (−) no binding was detected
Settings: for binding to CaM (result in words): TRPM8 fragments, FIG. 1 and FIG. 2; for Binding (binding activity to calmodulin): rat TRPM8 constructs, binding buffer with 2 mM CaCl2, 30 min room temperature
Experimental: ^35S-methionine labelled TRPM8 fragments were synthesized using TnT® T7 Quick Coupled Transcription/Translation System (Promega) following the vendor recommended protocol. Briefly, 10 μl of 0.1 μg/μl pAGA3 based TRPM8 construct (listed in Table 1) was added to 90 μl of TNT Quick Master Mix with 2 μl of [^35S]-methionine (1000 Ci/mmmol at 10 mCi/ml). The reaction mixture was incubated at 30° C. for 90 min. Aliquots of the incubation mixtures were used directly either for analysis by SDS/PAGE to confirm synthesis of proteins of the desired size or for the ability to bind to GST or GST-CaM.
The GST-CaM fusion plasmid was based on pGEX-4T-1 (Amersham Pharmacia). The CaM was fused to the C-terminus of GST. After transformation into Escherichia coli BL21, a single colony was picked and grown in brow medium to OD of 1.0 at 600 nm. The synthesis of the fusion protein was induced with 0.2 mM isopropyl β-D-thiogalactoside (IPTG). After growing 2-3 hours in the presence of IPTG at 27° C., the cells were collected by centrifugation, resuspended in NETN lysis buffer (0.5% Nonidet P-40/1 mM EDTA/20 mM Tris-HCl, pH8.0/100 mM NaCl; 1 ml of buffer per 20 ml of culture), and lysed by sonication. The cell lysate was separated from the cell debris by centrifugation at 10,000 g for 10 min at 4° C. GST-CaM in the cell lysate was adsorbed for 30 min at room temperature to agarose-glutathione (GSH) beads (Amersham Pharmacia) (1 vol. of lysates/1 vol of 50% (vol/vol) slurry of Agarose-GSH beads in NETN). The beads were washed with binding buffer (20 mM Tris-HCl, pH7.5/100 mM NaCl/2 mM CaCl2/0.5% Tween20).
Agarose-GSH beads (50% (vol./vol.)) bound with about 1 μg of GST or GST-CaM were incubated with 10 μl of ^35S-labelled TRPM8 fragment for 30 min at room temperature in a final volume of 200 μl of binding buffer. At the end of the incubation, the beads were washed three times with 1.0 ml of binding buffer and resuspended in 20 μl of 2× laemmli's sample loading buffer. Protein(s) bound to the beads, including the GST-CaM fusion protein, and possibly the ^35S-labelled TRPM8 fragment that interact with the GST-CaM fusion protein, were separated by SDS/PAGE followed by autoradiography.

B1: TRPM8-1/pAGA3: Rat TRPM8 fragment, residues M1-K432, 432 aa, in vitro translated from pAGA3 (protein)
chain: MSFEGARLSMRSRRNGTLGSTRTLYSSVSRSTDVSYSESDLVNFIQANFKKRECVFFTRDSKAMESICKCGYAQSQHIEGTQINQNEKWNYKKHTKEFPTDAFGDIQFETLGKKGKYLRLSCDTDSETLYELLTQHWHLKTPNLVISVTGGAKNFALKPRMRKIFSRLIYIAQSKGAWILTGGTHYGLMKYIGEVVRDNTISRNSEENIVAIGIAAWGMVSNRDTLIRNCDDEGHFSAQYIMDDFMRDPLYILDNNHTHLLLVDNGCHGHPTVEAKLRNQLEKYISERTSQDSNYGGKIPIVCFAQGGGRETLKAINTSVKSKIPCVVVEGSGQIADVIASLVEVEDVLTSSMVKEKLVRFLPRTVSRLPEEEIESWIKWLKEILESPHLLTVIKMEEAGDEVVSSAISYALYKAFSTNEQDKDNWNGQLKL
**Q.** Which results are given for B1?
**A.** binding to CaM (result in words): found to bind to CaM; Binding (binding activity to calmodulin): +

B2: TRPM8-9/pAGA3: Rat TRPM8 fragment, residues A172-S352, 180 aa (protein)
chain: AQSKGAWILTGGTHYGLMKYIGEVVRDNTISRNSEENIVAIGIAAWGMVSNRDTLIRNCDDEGHFSAQYIMDDFMRDPLYILDNNHTHLLLVDNGCHGHPTVEAKLRNQLEKYISERTSQDSNYGGKIPIVCFAQGGGRETLKAINTSVKSKIPCVVVEGSGQIADVIASLVEVEDVLTSS
**Q.** For B2, which “Binding (binding activity to calmodulin)” value is on record?
**A.** The value was “−”.

B3: TRPM8-4/pAGA3: Rat TRPM8 fragment, residues I609-K1104 (end), 495 aa (protein)
chain: NAAGESEELANEYETRAVELFTECYSSDEDLAEQLLVYSCEAWGGSNCLELAVEATDQHFIAQPGVQNFLSKQWYGEISRDTKNWKIILCLFIIPLVGCGLVSFRKKPIDKHKKLLWYYVAFFTSPFVVFSWNVVFYIAFLLLFAYVLLMDFHSVPHTPELILYALVFVLFCDEVRQWYMNGVNYFTDLWNVMDTLGLFYFIAGIVFRLHSSNKSSLYSGRVIFCLDYIIFTLRLIHIFTVSRNLGPKIIMLQRMLIDVFFFLFLFAVWMVAFGVARQGILRQNEQRWRWIFRSVIYEPYLAMFGQVPSDVDSTTYDFSHCTFSGNESKPLCVELDEYNLPRFPEWITIPLVCIYMLSTNILLVNLLVAMFGYTVGIVQENNDQVWKFQRYFLVQEYCNRLNIPFPFVVFAYFYMVVKKCFKCCCKEKNTESSACCFRNEDNETLAWEGVMKENYLVKINTKANDNAEEMRHRFRQLDTKLNDLKGLLKEIANKIK
**Q.** With B3 as the molecule, how does the “binding to CaM (result in words)” value read?
**A.** The value was “not”.

**Q.** And the “Binding (binding activity to calmodulin)” value?
**A.** The value was “−”.

B4: TRPM8-8/pAGA3: Rat TRPM8 fragment, residues M219-S352, 133 aa (protein)
chain: MVSNRDTLIRNCDDEGHFSAQYIMDDFMRDPLYILDNNHTHLLLVDNGCHGHPTVEAKLRNQLEKYISERTSQDSNYGGKIPIVCFAQGGGRETLKAINTSVKSKIPCVVVEGSGQIADVIASLVEVEDVLTSS
**Q.** Which “Binding (binding activity to calmodulin)” value does the source give for B4 here?
**A.** The value was “−”.

B5: TRPM8-6/pAGA3: Rat TRPM8 fragment, residues M63-S352, 289 aa (protein)
chain: AMESICKCGYAQSQHIEGTQINQNEKWNYKKHTKEFPTDAFGDIQFETLGKKGKYLRLSCDTDSETLYELLTQHWHLKTPNLVISVTGGAKNFALKPRMRKIFSRLIYIAQSKGAWILTGGTHYGLMKYIGEVVRDNTISRNSEENIVAIGIAAWGMVSNRDTLIRNCDDEGHFSAQYIMDDFMRDPLYILDNNHTHLLLVDNGCHGHPTVEAKLRNQLEKYISERTSQDSNYGGKIPIVCFAQGGGRETLKAINTSVKSKIPCVVVEGSGQIADVIASLVEVEDVLTSS
**Q.** B5 was tested. Which “binding to CaM (result in words)” value did it give?
**A.** The value was “found to bind CaM”.

**Q.** What about the “Binding (binding activity to calmodulin)” value of the same molecule?
**A.** The value was “+”.

B6: TRPM8-7/pAGA3: Rat TRPM8 fragment, residues V145-S352, 207 aa (protein)
chain: VISVTGGAKNFALKPRMRKIFSRLIYIAQSKGAWILTGGTHYGLMKYIGEVVRDNTISRNSEENIVAIGIAAWGMVSNRDTLIRNCDDEGHFSAQYIMDDFMRDPLYILDNNHTHLLLVDNGCHGHPTVEAKLRNQLEKYISERTSQDSNYGGKIPIVCFAQGGGRETLKAINTSVKSKIPCVVVEGSGQIADVIASLVEVEDVLTSS
**Q.** With B6 as the molecule, how does the “binding to CaM (result in words)” value read?
**A.** The value was “found to bind CaM”.

**Q.** What about the “Binding (binding activity to calmodulin)” value of the same molecule?
**A.** The value was “+”.

B7: TRPM8-10/pAGA3: Rat TRPM8 fragment, residues D198-S352, 154 aa (protein)
chain: DNTISRNSEENIVAIGIAAWGMVSNRDTLIRNCDDEGHFSAQYIMDDFMRDPLYILDNNHTHLLLVDNGCHGHPTVEAKLRNQLEKYISERTSQDSNYGGKIPIVCFAQGGGRETLKAINTSVKSKIPCVVVEGSGQIADVIASLVEVEDVLTSS
**Q.** For B7, which “Binding (binding activity to calmodulin)” value is on record?
**A.** The value was “−”.

B8: TRPM8-2/pAGA3: Rat TRPM8 fragment, residues M353-T690, 337 aa (protein)
chain: MVKEKLVRFLPRTVSRLPEEEIESWIKWLKEILESPHLLTVIKMEEAGDEVVSSAISYALYKAFSTNEQDKDNWNGQLKLLLEWNQLDLASDEIFTNDRRWESADLQEVMFTALIKDRPKFVRLFLENGLNLQKFLTNEVLTELFSTHFSTLVYRNLQIAKNSYNDALLTFVWKLVANFRRSFWKEDRSSREDLDVELHDASLTTRHPLQALFIWAILQNKKELSKVIWEQTKGCTLAALGASKLLKTLAKVKNDINAAGESEELANEYETRAVELFTECYSSDEDLAEQLLVYSCEAWGGSNCLELAVEATDQHFIAQPGVQNFLSKQWYGEISRDT
**Q.** With B8 as the molecule, how does the “binding to CaM (result in words)” value read?
**A.** The value was “not”.

**Q.** And the “Binding (binding activity to calmodulin)” value?
**A.** Its value is “−”.
